Several values for one entry are separate records, joined by “and”; a condition that tells them apart may be missing. Equal values may be shown once.
Assays:
[1] = Percent Pt released versus pH over time in citrate PBS; assay type: physicochemical; conditions: 37° C.
Method: A stock solution of citrate PBS that was 10 mM in citrate, 20 mM in phosphate, and 100 mM in NaCl was prepared and split into bottles which were then adjusted to the desired pH. The bottles were warmed to 37° C. in an oven and poly(HPMA)-GFLG-Ama=Pt(NH3)2, N,O-chelate, ˜20 kDa, was added to give a concentration of approximately 2 mg of polymer platinum conjugate per mL buffer. The mixtures were well mixed to give colorless solutions. At the indicated times, three approximately 2.5 mL aliquots were removed from the solution at each pH and transferred to previously washed YM-3 ultracentrifuge devices (Amicon) and spun at 5000 RCF and 37° C. for 50 min. Once all samples for all time points have been collected and prepared, the filtrates and stock solutions are analyzed against Pt standards (0–10 ppm) by ICP-OES at the platinum emission line of 214.42 nm. For each time point and at each pH, three samples were prepared and analyzed.

[2] = Platinum release from PBS; assay type: physicochemical; conditions: 37° C.
Method: The percent of small platinum species released over time was measured by dissolving about 30 mg of the polymer-platinum conjugate in 15 mL of phosphate buffered saline (10 mM phosphate, 123 mM Cl^−) and incubating the solution at 37° C. in a water bath. At indicated times, 2.0 mL aliquots were transferred to a centrifugal filter with a 3 kDa nominal molecular weight cutoff (Centricon YM-3 from Millipore) and spun until >1.5 mL of filtrate had accumulated. The timed filtrates and the original solution were analyzed for platinum by ICP-OES. The percent of small Pt species released was determined using the formula: ((ppm Pt in filtrate)/(ppm Pt in stock solution))×100.

[3] = tested on: Bl6FI0 melanoma cells; experiment: Clonogenic (colony-formation) assay; assay type: cell-based, murine; conditions: 7 days incubation
Method: The relative cytotoxic activity of various O,O′—Pt chelate analogs were evaluated in vitro by means of a clonogenic (colony-formation) assay employing a tissue culture of Bl6FI0 melanoma cells. In this way, the activity of the analogs was compared to that of cisplatin and carboplatin. The effect of conversion to an N,O—Pt chelate was also evaluated. Briefly, cells were seeded into culture dishes and allowed to attach. The cultures were incubated for 7 days in medium containing the desired concentration of the test agent. After fixation, the number of cell clusters containing >50 cells was scored as a colony. Each concentration of test agent was assayed in triplicate. The mean number of colonies in each of the triplicate dishes was divided by the mean number of colonies in the control (no test agent) dishes to obtain a percent survival value for each concentration of test agent. The IC50 (concentration resulting in 50% inhibition of growth) of each of the agents was determined by linear regression analysis using the data values directly above and below the 50% survival point.

[4] = Single-dose IV maximum tolerated dose study; assay type: in vivo; conditions: mice, highest dose with no drug-induced deaths
Excerpt: For these studies, the MTD was defined as the highest dose evaluated in which no mouse deaths resulted from drug-induced toxicity.

Substance: poly(HPMA)-GFLG-Ama=Pt(NH3)2, N,O—Pt chelate [Example 4]
- percent Pt released ([1]; pH 3.4, citrate PBS, 1 h): 2.0%
- percent Pt released ([1]; pH 3.4, citrate PBS, 2 h): 4.2 ± 0.1%
- percent Pt released ([1]; pH 3.4, citrate PBS, 4 h): 6.6%
- percent Pt released ([1]; pH 3.4, citrate PBS, 8 h, 100% N,O-chelate, approx. 20 kDa): 12% and 12.0 ± 0.1%
- percent Pt released ([1]; pH 3.4, citrate PBS, 24 h, 100% N,O-chelate, approx. 20 kDa): 30% and 29.1 ± 3.9%
- percent Pt released ([1]; pH 4.4, citrate PBS, 1 h): 0.9 ± 0.1%
- percent Pt released ([1]; pH 4.4, citrate PBS, 2 h): 1.9%
- percent Pt released ([1]; pH 4.4, citrate PBS, 4 h): 3.3 ± 0.4%
- percent Pt released ([1]; pH 4.4, citrate PBS, 8 h): 5.1 ± 1.2%
- percent Pt released ([1]; pH 4.4, citrate PBS, 24 h): 17.0 ± 3.6%
- percent Pt released ([1]; pH 5.4, citrate PBS, 1 h): 0.5%
- percent Pt released ([1]; pH 5.4, citrate PBS, 2 h): 0.9 ± 0.08%
- percent Pt released ([1]; pH 5.4, citrate PBS, 4 h): 1.4 ± 0.2%
- percent Pt released ([1]; pH 5.4, citrate PBS, 8 h): 2.6 ± 0.4%
- percent Pt released ([1]; pH 5.4, citrate PBS, 24 h): 7.3%
- percent Pt released ([1]; pH 6.4, citrate PBS, 1 h): 0.4%
- percent Pt released ([1]; pH 6.4, citrate PBS, 2 h): 0.7 ± 0.07%
- percent Pt released ([1]; pH 6.4, citrate PBS, 4 h): 0.9 ± 0.06%
- percent Pt released ([1]; pH 6.4, citrate PBS, 8 h): 1.3 ± 0.1%
- percent Pt released ([1]; pH 6.4, citrate PBS, 24 h): 2.7 ± 0.1%
- percent Pt released ([1]; pH 7.4, citrate PBS, 1 h): 0.36 ± 0.01%
- percent Pt released ([1]; pH 7.4, citrate PBS, 2 h): 0.5 ± 0.07%
- percent Pt released ([1]; pH 7.4, citrate PBS, 4 h): 0.7 ± 0.04%
- percent Pt released ([1]; pH 7.4, citrate PBS, 8 h): 0.9 ± 0.02%
- percent Pt released ([1]; pH 7.4, citrate PBS, 24 h): 1.6 ± 0.0%
- percent Pt released ([1]; pH 8.2, citrate PBS, 1 h): 0.39 ± 0.0%
- percent Pt released ([1]; pH 8.2, citrate PBS, 2 h): 0.7 ± 0.08%
- percent Pt released ([1]; pH 8.2, citrate PBS, 4 h): 0.7 ± 0.04%
- percent Pt released ([1]; pH 8.2, citrate PBS, 8 h): 0.8 ± 0.16%
- percent Pt released ([1]; pH 8.2, citrate PBS, 24 h): 1.8 ± 0.02%
- Pt release in PBS ([2]; 3 hours): 0.6%
- Pt release in PBS ([2]; 24 hours): 2.0%
- IC50 [3]: 3.4 µM
- maximum tolerated dose (MTD) [4]: 400 mg PVkg

Source: patent publication US7166733B2, “O,O'-Amidomalonate and N,O-Amidomalonate platinum complexes” (priority 2000, dated 2007)
